Measured values from paper PMC5651818, “VPS18 recruits VPS41 to the human HOPS complex via a RING–RING interaction” (Biochemical Journal, 2017).

Molecular target: T1, His-tagged VPS18 RING domain (residues 842–973) (human, UniProt Q9P253 842-973)
T1 construct: Vector pOPTnH; monomeric by SEC-MALS; also called VPS18 RING H6; VPS18H6; source: E. coli Rosetta2(DE3) pLysS, purified (Ni-NTA, SEC); not shown: LysHis6, C-terminal, kept
T1 sequence (looked up): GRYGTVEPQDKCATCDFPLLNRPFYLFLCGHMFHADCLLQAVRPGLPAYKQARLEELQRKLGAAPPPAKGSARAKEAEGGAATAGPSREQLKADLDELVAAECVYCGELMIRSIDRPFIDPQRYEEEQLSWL
Assay: SEC-MALS; Superdex 75 10/300, room temperature, 20 mM Tris (pH 7.5), 150 mM NaCl, 0.5 mM EDTA; complex formed from 0.48 mg/ml VPS41 RING and 0.68 mg/ml VPS18 RING H6 on ice for 15 min
Conditions: both partners purified

- stoichiometry N: 1
B1: tag-free VPS41 RING domain (residues 778–854) (domain or fragment, human, UniProt P49754 778-854, looked up)
chain: TQMKGVLVDEENICESCLSPILPSDAAKPFSVVVFHCRHMFHKECLPMPSMNSAAQFCNICSAKNRGPGSAILEMKK
notes: monomeric by SEC-MALS; also called untagged VPS41 RING; not shown: GST, N-terminal, cleaved
